Sequences and labels used below:
T1: EsCas13d, nuclease-dead (Eubacterium siraeum, UniProt B0MS50, R295A;H300A;R849A;H854A)
T1 sequence: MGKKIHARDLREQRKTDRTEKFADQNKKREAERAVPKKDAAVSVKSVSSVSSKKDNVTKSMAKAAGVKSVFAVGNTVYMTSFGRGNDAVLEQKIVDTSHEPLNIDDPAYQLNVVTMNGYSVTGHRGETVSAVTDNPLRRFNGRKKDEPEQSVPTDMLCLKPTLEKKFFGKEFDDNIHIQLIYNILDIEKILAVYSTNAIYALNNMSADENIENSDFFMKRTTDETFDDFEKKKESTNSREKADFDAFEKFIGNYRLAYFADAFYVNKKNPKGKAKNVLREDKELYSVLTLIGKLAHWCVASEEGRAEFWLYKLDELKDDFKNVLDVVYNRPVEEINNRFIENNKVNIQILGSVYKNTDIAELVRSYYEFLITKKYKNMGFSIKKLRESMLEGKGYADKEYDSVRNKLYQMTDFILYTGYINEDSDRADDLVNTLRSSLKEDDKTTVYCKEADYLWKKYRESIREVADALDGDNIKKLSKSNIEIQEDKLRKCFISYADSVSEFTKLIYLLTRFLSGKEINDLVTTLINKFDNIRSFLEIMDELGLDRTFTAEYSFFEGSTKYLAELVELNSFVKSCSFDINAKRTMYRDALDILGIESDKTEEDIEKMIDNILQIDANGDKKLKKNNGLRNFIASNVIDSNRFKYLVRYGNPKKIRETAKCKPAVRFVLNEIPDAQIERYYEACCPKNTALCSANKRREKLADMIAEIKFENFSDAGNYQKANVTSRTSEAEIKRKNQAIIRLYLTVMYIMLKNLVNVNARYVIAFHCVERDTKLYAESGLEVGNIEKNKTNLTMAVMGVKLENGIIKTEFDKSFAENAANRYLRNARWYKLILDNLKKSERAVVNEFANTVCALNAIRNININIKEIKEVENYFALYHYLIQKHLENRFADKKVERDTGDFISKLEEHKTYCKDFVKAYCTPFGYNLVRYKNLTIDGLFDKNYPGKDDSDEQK

B1: target 1 U11A,G12U (mixed)
RNA 1: CACCCGUGCAAAAAUGCAGGGGUCUAAAACUGAGCGGAUAACCUCUCUAUGG
RNA 2: GGGAAUGGAUCCACAUCUACGAAUUCGUACCAUAGAGAGUAUAUCCGCUCACCGAGAUCGGAAGAGCACACGU
B2: target 1 U3A,G12C (mixed)
RNA 1: B1 RNA 1
RNA 2: B1 RNA 2 with U40C, A41U, U49A
B3: target 1 A9G,G15A (mixed)
RNA 1: B1 RNA 1
RNA 2: B1 RNA 2 with G37A, U40G, A41U, A43G
B4: target 1 insU 3' of 5,insG 3' of 3 (mixed)
RNA 1: B1 RNA 1
RNA 2: GGGAAUGGAUCCACAUCUACGAAUUCGUACCAUAGAGAGGUUAUCCGUCUGCACCGAGAUCGGAAGAGCACACGU
B5: target 1 A1G,C7G (mixed)
RNA 1: B1 RNA 1
RNA 2: B1 RNA 2 with U40G, A41U, C45G, A51G
B6: target 1 C7G (mixed)
RNA 1: B1 RNA 1
RNA 2: B1 RNA 2 with U40G, A41U, C45G
B7: target 1 C2A,C4U (mixed)
RNA 1: B1 RNA 1
RNA 2: B1 RNA 2 with U40G, A41U, C48U, C50A
B8: target 1 insA 3' of 22,insA 3' of 17 (mixed)
RNA 1: B1 RNA 1
RNA 2: GGGAAUGGAUCCACAUCUACGAAUUCGUACACAUAGAAGAGGUUAUCCGCUCACCGAGAUCGGAAGAGCACACGU
B9: target 1 insU 3' of 6 (mixed)
RNA 1: B1 RNA 1
RNA 2: GGGAAUGGAUCCACAUCUACGAAUUCGUACCAUAGAGAGGUUAUCCUGCUCACCGAGAUCGGAAGAGCACACGU
B10: target 1 insU 3' of 13,insA 3' of 3 (mixed)
RNA 1: B1 RNA 1
RNA 2: B4 RNA 2 with G40U, U41G, A43U, U44A, C45U, G47C, U48G, G51A
B11: target 1 C7G,G17A (mixed)
RNA 1: B1 RNA 1
RNA 2: B1 RNA 2 with G35A, U40G, A41U, C45G
B12: target 1 C21A,C22A (mixed)
RNA 1: B1 RNA 1
RNA 2: B1 RNA 2 with C30A, C31A, U40G, A41U
B13: target 1 U3G,G15C (mixed)
RNA 1: B1 RNA 1
RNA 2: B1 RNA 2 with G37C, U40G, A41U, U49G
B14: target 1 insA 3' of 11,insG 3' of 3 (mixed)
RNA 1: B1 RNA 1
RNA 2: B4 RNA 2 with U42A, A43U, U44A, C45U, G47C, U48G
B15: target 1 insA 3' of 19,insA 3' of 13 (mixed)
RNA 1: B1 RNA 1
RNA 2: B8 RNA 2 with A31C, C32A, A33U, U34A, A38G, G39A, A40G, G41A
B16: target 1 insU 3' of 15,insG 3' of 3 (mixed)
RNA 1: B1 RNA 1
RNA 2: B4 RNA 2 with A38U, G39A, U41G, A43U, U44A, C45U, G47C, U48G
B17: target 1 A1C,C7G (mixed)
RNA 1: B1 RNA 1
RNA 2: B1 RNA 2 with U40G, A41U, C45G, A51C
B18: target 1 insA 3' of 22,insU 3' of 9 (mixed)
RNA 1: B1 RNA 1
RNA 2: B8 RNA 2 with A38G, G39A, A40G, G42U, U44A, A45U
B19: target 1 insC 3' of 18,insA 3' of 17 (mixed)
RNA 1: B1 RNA 1
RNA 2: B8 RNA 2 with A31C, C32A, A33U, U34A, A35C
B20: target 1 insA 3' of 21,insU 3' of 7 (mixed)
RNA 1: B1 RNA 1
RNA 2: GGGAAUGGAUCCACAUCUACGAAUUCGUACCAAUAGAGAGGUUAUCUCGCUCACCGAGAUCGGAAGAGCACACGU
B21: target 1 insU 3' of 22,insA 3' of 6 (mixed)
RNA 1: B1 RNA 1
RNA 2: B20 RNA 2 with C31U, A32C, U47C, C48A
B22: target 1 insG 3' of 4,insA 3' of 4 (mixed)
RNA 1: B1 RNA 1
RNA 2: B4 RNA 2 with U48C, C49G, U50A, G51U
B23: target 1 insG 3' of 19 (mixed)
RNA 1: B1 RNA 1
RNA 2: GGGAAUGGAUCCACAUCUACGAAUUCGUACCAUGAGAGAGGUUAUCCGCUCACCGAGAUCGGAAGAGCACACGU
B24: target 1 C7A,A20U (mixed)
RNA 1: B1 RNA 1
RNA 2: B1 RNA 2 with A32U, U40G, A41U, C45A
B25: target 1 insA 3' of 15,insC 3' of 14 (mixed)
RNA 1: B1 RNA 1
RNA 2: B8 RNA 2 with A31C, C32A, A33U, U34A, A35G, G36A, A37G, G39A, A40C
B26: target 1 insC 3' of 15,insC 3' of 14 (mixed)
RNA 1: B1 RNA 1
RNA 2: GGGAAUGGAUCCACAUCUACGAAUUCGUACCAUAGAGCACGGUUAUCCGCUCACCGAGAUCGGAAGAGCACACGU
B27: target 1 G12U,A16C (mixed)
RNA 1: B1 RNA 1
RNA 2: B1 RNA 2 with A36C, A41U

Substitutions are numbered along the chain they refer to. Numbers in names are those of the source.

In the data set the target is T1, EsCas13d, nuclease-dead. Kind of data set: crRNA (strand 1, pre-loaded); Mg2+; 40 mM Tris-HCl pH 7.5, 150 mM NaCl, 6 mM MgCl2, 1 mM DTT, 0.1% Tween-20, 0.2 mg/ml BSA; 25 C; 10 min per concentration, then washed. To be noted: tags: His6-TwinStrep-SUMO cleaved; N-terminal SNAP kept (SNAP-Surface 488); label: 3' end held by stalled T7 RNA polymerase.
Take B1: binding was characterised by a dissociation constant (Kd) of 5.1 ± 0.35 nM.
Molecule B2 gave a Kd of 8.5 ± 0.4 nM.
Molecule B3 gave a Kd of 11.6 ± 0.7 nM.
To B4 belongs 12.9 ± 0.9 nM.
To B5 belongs 9.2 ± 0.9 nM; to B6, 8.8 ± 0.5 nM.
The molecule B7 showed a Kd of 33.5 ± 3.5 nM.
As for B8, binding was put at a Kd of 27.5 ± 2 nM.
Regarding B9, the Kd was determined as 12.8 ± 0.7 nM.
Regarding B10, the Kd worked out at 24 ± 3.1 nM.
Molecule B11 returned a Kd of 49 ± 5 nM.
On to B12, for which the Kd was determined as 36 ± 5 nM.
Molecule B13 returned a Kd of 34 ± 4 nM.
Take B14: the Kd is 12.1 ± 0.6 nM.
The value for B15 was 17.9 ± 2 nM; that for B16 was 6.99 ± 0.32 nM.
B17 came in with a Kd of 8.8 ± 0.7 nM.
As for B18, the affinity, expressed as Kd, was 21.6 ± 1.5 nM.
On to B19, for which binding was characterised by a dissociation constant (Kd) of 50 ± 6 nM.
B20 registered a Kd of 40.7 ± 3.1 nM.
Consider B21, for which binding was characterised by a dissociation constant (Kd) of 55 ± 16 nM.
Consider B22, for which the Kd was determined as 4.63 ± 0.25 nM.
On to B23, for which the Kd amounted to 50 ± 4 nM.
To B24 belongs 45 ± 5 nM; to B25, 14.8 ± 0.7 nM; to B26, 12 ± 1 nM.
B27: the Kd turned out to be 76 ± 14 nM.

What is called Kd is the constant that tells how readily two partners part at equilibrium.

Source of the values: PMC10786891, “Massively parallel profiling of RNA-targeting CRISPR-Cas13d”.
